The target in this test is GST-Rheb protein (UniProt Q15382 1-169). Description: BLI.

In PMC11192940 (2024) one finds koff data, which are given here for 1 molecule.

GST-Rheb protein, sequence (Q15382 1-169): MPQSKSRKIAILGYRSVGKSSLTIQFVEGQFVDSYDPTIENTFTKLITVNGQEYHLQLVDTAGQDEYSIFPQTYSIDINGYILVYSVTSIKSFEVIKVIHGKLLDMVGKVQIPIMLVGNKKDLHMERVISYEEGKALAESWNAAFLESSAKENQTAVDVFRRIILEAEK

B1: His-IL-37d, recombinant human IL-37d protein with a TAT peptide (pET-22b-TAT-his-IL-37d; mature IL-37d 21–197aa) (other)
chain: YGRKKRRQRRREPQCCLEGPKVKNLNPKKFSIHDQDHKVLVLDSGNLIAVPDKNYIRPEIFFALASSLSSASAEKGSPILLGVSKGEFCLYCDKDKGQSHPSLQLKKEKLMKLAAQKESARRPFIFYRAQVGSWNMLESAAHPGWFICTSCNCNEPVGVTDKFENRKHIEFSFQPVCKAEMSPSEVSD
For B1, the koff stood at 0.00194 s⁻¹.
